Experimental data reported in PMC3447998 (Biochemistry, 2012).
Where no end group is shown, it is not given here. Me3 = trimethylated alpha-amino group on the N-terminal residue; Me2 = dimethylated alpha-amino group on the N-terminal residue

T1: recombinant human NRMT (N-terminal RCC1 methyltransferase) (human, UniProt Q9BV86 1-223)
T1 sequence (looked up): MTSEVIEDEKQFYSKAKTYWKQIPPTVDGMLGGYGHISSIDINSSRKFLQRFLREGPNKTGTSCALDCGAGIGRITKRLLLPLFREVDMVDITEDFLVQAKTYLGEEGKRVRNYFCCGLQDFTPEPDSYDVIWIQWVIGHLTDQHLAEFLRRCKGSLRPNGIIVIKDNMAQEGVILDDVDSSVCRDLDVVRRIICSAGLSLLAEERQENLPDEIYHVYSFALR


How the values were obtained:
[1] = biological target: T1, recombinant human NRMT (N-terminal RCC1 …); assay: ITC
[2] = biological target: T1, recombinant human NRMT (N-terminal RCC1 …); assay: ITC; remark: listed apart in the source

| Ka [1] | Kd [2] | dH [2] | stoichiometry N [2] | Kd of the first phase of the bi-phasic curve [2] | Kd of the second phase of the bi-phasic curve [2] | dH of the first phase of the bi-phasic curve [2] | dH of the second phase of the bi-phasic curve [2] | Binder |
| --- | --- | --- | --- | --- | --- | --- | --- | --- |
| 480000 M⁻¹ | 2000 nM | -4.33 kcal/mol | 1.2 | – | – | – | – | Me3-SPKRIAKRRS [me3SPKRIAKRRS, 10-residue me3-SPK-RCC1 N-terminal product peptide] |
| 770000 M⁻¹ | 1300 nM | -5.77 ± 0.093 kcal/mol | 0.9 | – | – | – | – | Me2-PPKRIAKRRS [me2PPKRIAKRRS, 10-residue me2-PPK-RCC1 N-terminal product peptide] |

More lines, now with the values behind:

| Binder | Ka [1] | Kd [2] | dH [2] | stoichiometry N [2] | Kd of the first phase of the bi-phasic curve [2] | Kd of the second phase of the bi-phasic curve [2] | dH of the first phase of the bi-phasic curve [2] | dH of the second phase of the bi-phasic curve [2] |
| --- | --- | --- | --- | --- | --- | --- | --- | --- |
| SPKRIAKRRS [SPKRIAKRRS, wild-type 10-residue SPK-RCC1 N-terminal peptide] | 100000 M⁻¹ | 10000 nM | -9.94 ± 0.207 kcal/mol | 0.8 | – | – | – | – |
| PPKRIAKRRS [PPKRIAKRRS, 10-residue PPK-RCC1 N-terminal peptide] | – | – | – | – | 1.5 nM | 140 nM | -31 ± 0.221 kcal/mol | -9.43 ± 0.192 kcal/mol |
